Measurements published in patent US7119183.

Biological target: human CDw32 antigen (IgG Fc receptor) (human) (UniProt P12318)
Assay: indirect immunofluorescence on CDw32-transfected COS cells

Chain of UniProt P12318 (P12318 34-317 H167R limits assumed, form in doubt): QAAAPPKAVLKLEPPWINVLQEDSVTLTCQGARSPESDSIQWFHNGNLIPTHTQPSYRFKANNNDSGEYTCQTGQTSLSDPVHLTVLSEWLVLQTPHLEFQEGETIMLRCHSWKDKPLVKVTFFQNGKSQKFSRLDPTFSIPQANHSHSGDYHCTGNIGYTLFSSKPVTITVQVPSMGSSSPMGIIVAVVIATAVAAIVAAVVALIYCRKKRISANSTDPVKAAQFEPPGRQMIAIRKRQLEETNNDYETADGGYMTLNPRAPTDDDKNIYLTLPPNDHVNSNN

| Substance | Kd |
| --- | --- |
| human IgG (antibody) | 100 nM |
| mouse IgG (antibody) | 100 nM |
